Assay results reported in patent CN114605536A.

Target: 天然TSLP
Assay: cell-based or functional assay

Substance Tezepelumab (antibody) has a 抑制天然TSLP诱导的SW756-STAT5-Luciferase报告基因细胞STAT5磷酸化活性的IC50 of 1.45 ng/mL.
